Measured values from patent US20120282643A1.

Molecular target: sulfite reductase tagged with a C-terminal GFP S11 (SEQ ID NO: 16)
Experiment: cell-based or functional assay

In the case of “Split-CFP S1-10 (D19E, D21E, Y66W, H148D, T205S)”, the Final Fluorescence (Ident. A2) is reported as 4110, the Final Fluorescence (Ident. A3) is reported as 1990 and the Final Fluorescence (Ident. A6) is reported as 5000. It also gave a Final Fluorescence (Ident. A8) of 2360, a Final Fluorescence (Ident. A9) of 4990 and a Final Fluorescence (Ident. A10) of 4930. The Final Fluorescence (Ident. B1) was 4790, the Final Fluorescence (Ident. B2) was 3260 and the Final Fluorescence (Ident. B3) was 2360. The Final Fluorescence (Ident. B4) was 1760, the Final Fluorescence (Ident. B5) was 2740 and the Final Fluorescence (Ident. B6) was 2950. The Final Fluorescence (Ident. C2) was 2250, the Final Fluorescence (Ident. C3) was 2200 and the Final Fluorescence (Ident. C5) was 2540. The Final Fluorescence (Ident. C9) was 1830, the Final Fluorescence (Ident. D5) was 2420 and the Final Fluorescence (Ident. D9) was 1340. It also gave a Final Fluorescence (Ident. D12) of 3130, a Final Fluorescence (Ident. E1) of 4830 and a Final Fluorescence (Ident. E2) of 1690. The Final Fluorescence (Ident. E3) was 1980, the Final Fluorescence (Ident. E5) was 1800 and the Final Fluorescence (Ident. E6) was 2560. The Final Fluorescence (Ident. F1) was 4070, the Final Fluorescence (Ident. F2) was 1800 and the Final Fluorescence (Ident. F3) was 2290. The Final Fluorescence (Ident. F4) was 1540, the Final Fluorescence (Ident. F5) was 2900 and the Final Fluorescence (Ident. F7) was 2850. The Final Fluorescence (Ident. F9) was 2710, the Final Fluorescence (Ident. G1) was 4400 and the Final Fluorescence (Ident. G3) was 2410. It also gave a Final Fluorescence (Ident. G6) of 2580, a Final Fluorescence (Ident. G7) of 2130 and a Final Fluorescence (Ident. H1) of 4140. For the same substance, the Final Fluorescence (Ident. H4) was 2360, the Final Fluorescence (Ident. H7) was 3870 and the Final Fluorescence (Ident. H8) was 2820. It also gave an Initial Rate (Ident. A2) of 14100, an Initial Rate (Ident. A3) of 8810 and an Initial Rate (Ident. A6) of 18800. For the same substance, the Initial Rate (Ident. A8) was 11700, the Initial Rate (Ident. A9) was 17700 and the Initial Rate (Ident. A10) was 16900. For the same substance, the Initial Rate (Ident. B1) was 15700, the Initial Rate (Ident. B2) was 11900 and the Initial Rate (Ident. B3) was 8260. For the same substance, the Initial Rate (Ident. B4) was 9110, the Initial Rate (Ident. B5) was 10300 and the Initial Rate (Ident. B6) was 10600. For the same substance, the Initial Rate (Ident. C2) was 7890, the Initial Rate (Ident. C3) was 7950 and the Initial Rate (Ident. C5) was 9490. It also gave an Initial Rate (Ident. C9) of 7200, an Initial Rate (Ident. D5) of 8850 and an Initial Rate (Ident. D9) of 7490. For the same substance, the Initial Rate (Ident. D12) was 12000, the Initial Rate (Ident. E1) was 11700 and the Initial Rate (Ident. E2) was 7780. It also gave an Initial Rate (Ident. E3) of 6770, an Initial Rate (Ident. E5) of 6370 and an Initial Rate (Ident. E6) of 9260. The Initial Rate (Ident. F1) was 9890, the Initial Rate (Ident. F2) was 6690 and the Initial Rate (Ident. F3) was 7600. It also gave an Initial Rate (Ident. F4) of 7760, an Initial Rate (Ident. F5) of 10200 and an Initial Rate (Ident. F7) of 10000. The Initial Rate (Ident. F9) was 9770, the Initial Rate (Ident. G1) was 11000 and the Initial Rate (Ident. G3) was 10800. For the same substance, the Initial Rate (Ident. G6) was 11900, the Initial Rate (Ident. G7) was 9680 and the Initial Rate (Ident. H1) was 10000. The Initial Rate (Ident. H4) was 10400, the Initial Rate (Ident. H7) was 12900 and the Initial Rate (Ident. H8) was 10900.
“Split-CFP S1-10 (D19E, D21E, Y66W, H148D, T205S, S208L)” showed a Final Fluorescence (Ident. C4) of 2270, a Final Fluorescence (Ident. G5) of 1360 and an Initial Rate (Ident. C4) of 7790. The Initial Rate (Ident. G5) was 6070.
“Split-CFP S1-10 (D19E, D21N, Y66W, H148D, T205S)” was tested, and the Final Fluorescence (Ident. A7) was 2550, the Final Fluorescence (Ident. C6) was 1120 and the Final Fluorescence (Ident. C7) was 1730. For the same substance, the Final Fluorescence (Ident. C8) was 1010, the Final Fluorescence (Ident. C10) was 1720 and the Final Fluorescence (Ident. D7) was 744. The Final Fluorescence (Ident. D10) was 1200, the Final Fluorescence (Ident. E8) was 1140 and the Final Fluorescence (Ident. G2) was 1910. The Final Fluorescence (Ident. G8) was 1420, the Final Fluorescence (Ident. G9) was 1700 and the Final Fluorescence (Ident. H3) was 2130. For the same substance, the Final Fluorescence (Ident. H5) was 2000, the Final Fluorescence (Ident. H9) was 1340 and the Initial Rate (Ident. A7) was 8100. It also gave an Initial Rate (Ident. C6) of 3590, an Initial Rate (Ident. C7) of 6280 and an Initial Rate (Ident. C8) of 4550. For the same substance, the Initial Rate (Ident. C10) was 6180, the Initial Rate (Ident. D7) was 3120 and the Initial Rate (Ident. D10) was 4290. The Initial Rate (Ident. E8) was 5330, the Initial Rate (Ident. G2) was 3790 and the Initial Rate (Ident. G8) was 9440. It also gave an Initial Rate (Ident. G9) of 7820, an Initial Rate (Ident. H3) of 6870 and an Initial Rate (Ident. H5) of 5750. For the same substance, the Initial Rate (Ident. H9) was 7800.
For “Split-CFP S1-10 (D19E, D21N, Y66W, S99T, H148D, T205S)”, the Final Fluorescence (Ident. B9) was 703, the Final Fluorescence (Ident. C12) was 1740 and the Initial Rate (Ident. B9) was 2230. For the same substance, the Initial Rate (Ident. C12) was 5120.
“Split-CFP S1-10 (D19E, Y66W, H148D, T205S) (from UniProt P42212 1-214)” gave a Final Fluorescence (Ident. A5) of 2860 and an Initial Rate (Ident. A5) of 9770.
Substance “Split-CFP S1-10 (D21E, Y66W, H148D, T205S) (from UniProt P42212 1-214)” has a Final Fluorescence (Ident. G4) of 5100 and an Initial Rate (Ident. G4) of 13000.
“Split-CFP S1-10 (D21N, Y66W, H148D, T205S) (from UniProt P42212 1-214)” showed a Final Fluorescence (Ident. A12) of 990, a Final Fluorescence (Ident. B12) of 1790 and an Initial Rate (Ident. A12) of 3060. The Initial Rate (Ident. B12) was 4900.
For “Split-CFP S1-10 (D21N, Y66W, T205S) (from UniProt P42212 1-214)”, the Final Fluorescence (Ident. F12) was 868 and the Initial Rate (Ident. F12) was 1980.
With “Split-CFP S1-10 (V16I, D19E, D21E, Y66W, H148D, T205S)” the Final Fluorescence (Ident. B8) was 1640, the Final Fluorescence (Ident. B10) was 3340 and the Final Fluorescence (Ident. D2) was 3360. For the same substance, the Initial Rate (Ident. B8) was 8930, the Initial Rate (Ident. B10) was 11500 and the Initial Rate (Ident. D2) was 11500.
“Split-CFP S1-10 (V16I, D21E, Y66W, T205S) (from UniProt P42212 1-214)” was tested, and the Final Fluorescence (Ident. E12) was 1070 and the Initial Rate (Ident. E12) was 2040.
Work on “Split-CFP S1-10 (Y66W, H148D, T205S) (from UniProt P42212 1-214)” yielded a Final Fluorescence (Ident. D1) of 8860, a Final Fluorescence (Ident. D4) of 3740 and a Final Fluorescence (Ident. D6) of 4100. It also gave a Final Fluorescence (Ident. D8) of 3750, a Final Fluorescence (Ident. E4) of 3280 and a Final Fluorescence (Ident. F8) of 1310. The Final Fluorescence (Ident. H2) was 6570, the Initial Rate (Ident. D1) was 14500 and the Initial Rate (Ident. D4) was 7990. It also gave an Initial Rate (Ident. D6) of 10000, an Initial Rate (Ident. D8) of 8440 and an Initial Rate (Ident. E4) of 7280. For the same substance, the Initial Rate (Ident. F8) was 3820 and the Initial Rate (Ident. H2) was 9060.
“Split-CFP S1-10 (Y66W, T205S) (from UniProt P42212 1-214)” gave a Final Fluorescence (Ident. G12) of 382, a Final Fluorescence (Ident. H12) of 425 and an Initial Rate (Ident. G12) of 3740. The Initial Rate (Ident. H12) was 3600.
For “Split-CFP plate clone F6 (D19E, D21E, H148D, T205S) (from UniProt P42212 1-214)”, the Final Fluorescence (Ident. F6) was 2910 and the Initial Rate (Ident. F6) was 10900.
“Split-YFP S1-10 (C70S, T203Y) (from UniProt P42212 1-214)” gave a Green Fluorescence (488/510) (clone F3) of 10.5, a Ratio Yellow/Green Fluorescence (clone F3) of 11.4 and a Yellow Fluorescence (510/532) (clone F3) of 120.
With “Split-YFP S1-10 (R80K, T203Y) (from UniProt P42212 1-214)” the Green Fluorescence (488/510) (clone H1) was 7.41, the Ratio Yellow/Green Fluorescence (clone H1) was 18.7 and the Yellow Fluorescence (510/532) (clone H1) was 138.
Work on “Split-YFP S1-10 (S99F, T203Y, T205S) (from UniProt P42212 1-214)” yielded a Green Fluorescence (488/510) (clone G11) of 7.47, a Ratio Yellow/Green Fluorescence (clone G11) of 18.9 and a Yellow Fluorescence (510/532) (clone G11) of 141.
“Split-YFP S1-10 (T9N, T65L, T203Y, T205S) (from UniProt P42212 1-214)” was tested, and the Green Fluorescence (488/510) (clone C5) was 5.07, the Ratio Yellow/Green Fluorescence (clone C5) was 20.9 and the Yellow Fluorescence (510/532) (clone C5) was 106.
For “Split-YFP S1-10 (T65A, T203Y, T205S) (from UniProt P42212 1-214)”, the Green Fluorescence (488/510) (clone C4) was 7.17, the Ratio Yellow/Green Fluorescence (clone C4) was 10.6 and the Yellow Fluorescence (510/532) (clone C4) was 76.2.
“Split-YFP S1-10 (T65G, P192H, T203Y, T205S) (from UniProt P42212 1-214)” gave a Green Fluorescence (488/510) (clone D3) of 7.15, a Ratio Yellow/Green Fluorescence (clone D3) of 17.9 and a Yellow Fluorescence (510/532) (clone D3) of 128.
Work on “Split-YFP S1-10 (T65G, S99F, T203Y, T205S) (from UniProt P42212 1-214)” yielded a Green Fluorescence (488/510) (clone E11) of 4.51, a Ratio Yellow/Green Fluorescence (clone E11) of 22.5 and a Yellow Fluorescence (510/532) (clone E11) of 101.
Substance “Split-YFP S1-10 (T65G, T203Y) (from UniProt P42212 1-214)” has a Green Fluorescence (488/510) (clone A9) of 4.5, a Green Fluorescence (488/510) (clone B2) of 5.85 and a Green Fluorescence (488/510) (clone E7) of 6.91. It also gave a Ratio Yellow/Green Fluorescence (clone A9) of 24.3, a Ratio Yellow/Green Fluorescence (clone B2) of 19.5 and a Ratio Yellow/Green Fluorescence (clone E7) of 17. The Yellow Fluorescence (510/532) (clone A9) was 109, the Yellow Fluorescence (510/532) (clone B2) was 114 and the Yellow Fluorescence (510/532) (clone E7) was 117.
“Split-YFP S1-10 (T65L, V176I, T203Y, T205S) (from UniProt P42212 1-214)” was tested, and the Green Fluorescence (488/510) (clone A7) was 2.77, the Ratio Yellow/Green Fluorescence (clone A7) was 28.5 and the Yellow Fluorescence (510/532) (clone A7) was 79.1.
